In patent publication US10000775B2, “Biosynthesis of 1-undecene and related terminal olefins” (The Regents of the University of California, priority 2013, dated 2018):

Experiments:
E. coli = assay: 1-undecene production in E. coli overexpressing PFL_4321, PFL_0203 or homologs, with or without UcFatB2; assay type: cell-based; conditions: E. coli BL21 Star (pZR60), headspace GC-MS
Description: E. coli, P. aeruginosa PAO-1, and P. aeruginosa PA14 strains were grown in 5 mL of LB medium overnight at 37° C., while all the other Pseudomonas and Acinetobacter strains were grown at 30° C. […] The culture was shaken in a sealed 20 mL headspace vial (Agilent certified) containing a stir bar at 30° C. for 36 hr. After incubation, an SPME fiber (30 μm polydimethylsiloxane, Supelco, Sigma-Aldrich Group, Bellefonte, Pa.) was manually inserted into the headspace vial and incubated at 25° C. for 12.5 min. GC-MS analysis was conducted on a Varian CP-3800 instrument equipped with a Varian 320-MS. […] The signals of the 1-alkenes were identified and quantified by comparison with authentic samples (MP Biomedicals), which were diluted in ethyl acetate, added to 5 mL of culture medium in a sealed headspace vial, and sampled by the same SPME-GCMS method as described above.
[…] 1-Undecene production was detected by using the SPME-GCMS method. […]
To investigate whether PFL_0203 was facilitating the production of 1-undecene, this gene was individually expressed in E. coli and the cells were monitored for 1-undecene production. […]

[1] = In vitro activity of PFL_4321 and PFL_0203 toward fatty acids with various chain lengths; assay type: biochemical; set-up: key to In vitro activity toward C8:0 / In vitro activity toward C10:0 / In vitro activity toward C12:0 / In vitro activity toward C14:0 / In vitro activity toward C16:0: ✓: indicates production of the corresponding 1-alkene from the indicated substrate; x: indicates failure to produce the corresponding 1-alkene from the indicated substrate
Description: A typical condition is as follows: 1 mL of reaction mixture contains 50 mM MES buffer (pH 6.2), 300 mM NaCl, 100 μM (NH4)2Fe(SO4)2, 1 mM ascorbic acid, 100 μM fatty acid substrate or analogs, and 10 μM enzyme. The reaction was performed in a sealed headspace vial at 30° C., initiated by adding lauric acid and quenched by injecting equal volume of 5 M NaOH. 1-Undecene production was analyzed and quantified by using the SPME-GCMS method. To determine the kinetic parameters of PFL_4321 on lauric acid, initial velocities at 1, 10, 20, 50, 100, and 150 μM of lauric acid were measured (25 mM lauric acid solution was prepared by adding 0.5% tergitol and heating at 65° C. for 10 min). The reactions were quenched at 2, 4, 6, 8, and 10 seconds, and the acquired turnover rates were fit to the Michaelis-Menten equation using GraphPad Prism to obtain kcat and Km. The kcat and Km of myristic acid and capric acid were determined similarly.
Unless otherwise noted, all experiments with PFL_0203 as described herein were performed using similar assays, procedures, and techniques as used in a given corresponding experiment as described in Example 1.
The fatty acid substrate specificity of PFL_0203 was investigated in a series of in vitro experiments. […] Thus, PFL_4321 and PFL_0203 share some overlap in suitable substrates; PFL_4321 is able to act on C10-C14 fatty acid substrates, and PFL_0203 is able to act on C10-C16 fatty acid substrates.

[2] = Initial production rate determination under single turnover conditions; assay type: biochemical; conditions: single turnover condition
Description: To determine the initial rates of 1-alkene production under the single turnover conditions, the O2-saturated buffer solution (50 mM MES, pH 6.2, 100 mM NaCl) was mixed with an equal volume of an O2-free solution containing 50 mM MES buffer (pH 6.2), 100 mM NaCl, 200 μM (NH4)2Fe(SO4)2, 0.2-20 μM PFL_4321, and various concentrations of substrate (2-300 μM), so that the final mixture contained 50 mM MES buffer (pH 6.2), 100 mM NaCl, 0.1-10 μM PFL_4321, 100 μM (NH4)2Fe(SO4)2, and various concentrations of substrate (1-150 μM). The reactions were carried out in sealed GC vials and quenched by injecting 1 M NaOH at 2, 4, 6, 8, 10, 20, 30, 40, 50, 60 seconds. The productions of 1-alkenes were analyzed by SPME-GCMS analysis.

B1: PFL_4321: protein of 261 amino acids from Pseudomonas fluorescens Pf-5; non-heme iron (II)-dependent enzyme converting medium-chain fatty acids into terminal olefins (protein, listed as Pseudomonas fluorescens)
chain: MIDTFSRTGPLMEAASYPAWTQQLIQDCSESKRRVVEHELYQRMRDNKLSAKVMRQYLIGGWPVVEQFALYMAQNLTKTRFARHPGEDMARRWLMRNIRVELNHADYWVHWSRAHGVTLEDLQAQQVPPELHALSHWCWHTSSADSLIVAIAATNYAIEGATGEWSALVCSNGIYAAAFPEEDRKRAMKWLKMHAQYDDAHPWEALEIIVTLAGLNPTKALQAELRQAICKSYDYMYLFLERCMQQEKTAVTRERLALAEG
- 1-undecene produced (E. coli): ~5 µg/mL
- In vitro activity toward C8:0 ([1]; substrate C8:0): x
- In vitro activity toward C10:0 ([1]; substrate C10:0): ✓
- In vitro activity toward C12:0 ([1]; substrate C12:0): ✓
- In vitro activity toward C14:0 ([1]; substrate C14:0): ✓
- In vitro activity toward C16:0 ([1]; substrate C16:0): x
- initial rate of 1-undecene production [2]: 0.06±0.002 mol 1-undecene/(mol PFL_4321-Fe(II) second)
